Measured values reported in US20260207767A1 (ANAVEON, published 2026).

How the values were obtained:
[1] = molecular target: T1, human PD-1 expressed on cells (human, UniProt Q15116 25-288); assay: flow cytometry, CHO-S hPD-1
T1 construct: whole, on cells; cell line named under assay; also called CHO-S hPD-1; Raji PD-1
Method: CHO-S hPD-1 cells were incubated with a 5-fold serial dilution of the indicated humanized antibodies. Antibody binding was detected with goat anti-human IgG-PE. MFI were plotted over the antibody concentration to obtain EC50 values.

[2] = molecular target: T2, cynoPD-1 His (AcroBiosystems PD1-C5223) (cynomolgus monkey, UniProt B0LAJ3 25-170); assay: SPR, Ab captured, PD-1 analyte
T2 construct: also called cPD-1; cynomolgus PD-1 His-tagged
T2 sequence (B0LAJ3 entry or part of it limits assumed): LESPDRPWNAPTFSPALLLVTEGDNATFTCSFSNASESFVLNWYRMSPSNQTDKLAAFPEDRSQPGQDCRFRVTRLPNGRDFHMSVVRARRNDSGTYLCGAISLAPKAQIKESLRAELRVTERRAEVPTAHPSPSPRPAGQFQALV
Method: (§1) Anti-human Fc IgG (Jackson) was immobilized on amine reactive CM5 chips (GE Healthcare) using 1×HBS-EP+ running buffer (GE Healthcare). The test antibodies were captured at flow rate 10 μl/min with 30 s contact time. […] Regeneration was carried out with 10 mM Glycine-HCl, pH 1.5 at flow rate 10 μL/min. This protocol is to be used, unless stated otherwise, in determination of Kd wherever used to define the KD of antibodies specified herein, with adaptions where necessary with regard to the nature of the interaction partners.

[3] = molecular target: T3, hPD-1 Avi-Tag Biotin (AcroBiosystems PD1-H82E4) (human, UniProt Q15116 25-167, biotin on Avi-Tag); assay: SPR, Ab captured, PD-1 analyte
T3 construct: bought; also called human PD-1
T3 sequence (Q15116 25-167 limits assumed): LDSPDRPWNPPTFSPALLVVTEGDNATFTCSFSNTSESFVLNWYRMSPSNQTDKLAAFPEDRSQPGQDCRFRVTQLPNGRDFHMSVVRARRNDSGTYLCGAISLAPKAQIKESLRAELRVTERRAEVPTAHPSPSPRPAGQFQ
Method: as §1

T1 sequence (Q15116 25-288): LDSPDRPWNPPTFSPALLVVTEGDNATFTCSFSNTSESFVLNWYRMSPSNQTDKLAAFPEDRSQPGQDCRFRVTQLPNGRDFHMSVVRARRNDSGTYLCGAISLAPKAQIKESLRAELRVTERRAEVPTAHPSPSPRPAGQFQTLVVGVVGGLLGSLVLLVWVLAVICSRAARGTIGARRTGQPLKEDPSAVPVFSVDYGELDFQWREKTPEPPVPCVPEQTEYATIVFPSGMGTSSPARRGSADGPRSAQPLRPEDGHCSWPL

Row | Binder | EC50 [1] [nM] | Top MFI [1] [MFI] | Kd [2] [nM] | koff [2] [s⁻¹] | kon [2] [M⁻¹ s⁻¹] | Kd [3] [nM] | koff [3] [s⁻¹] | kon [3] [M⁻¹ s⁻¹]
1 | z5-XVT458 (antibody, human IgG1, kappa, V domains shown, hIgG1; numbering as for z1; also called GH + V067A + T073K) VH: QVQLVQSGAEVKKPGASVKVSCKASGYTFTNFYIHWVRQAPGQGLEWMGSIYPNYGDTAYNQKFKDRATMTTDKSTSTAYMELRSLRSDDTAVYYCARGYSYAMDYWGQGTTVTVSS VL: DIQMTQSPSSVSASVGDRVTITCSASQGISGDLNWYQQKPGKAPKLLIYHTSSLHSGVPSRFSGSGSGTDFTLTISSLQPEDFATYYCQYYSKDLLTFGGGTKLEIKR | 4.51 | 46200 | 57.3 | 0.00336 | 58600 | 15.9 | 0.00145 | 91400
2 | z3-XVT458 (antibody, human IgG1, kappa, V domains shown, hIgG1; numbering as for z1; also called GH + T073K) VH: QVQLVQSGAEVKKPGASVKVSCKASGYTFTNFYIHWVRQAPGQGLEWMGSIYPNYGDTAYNQKFKDRVTMTTDKSTSTAYMELRSLRSDDTAVYYCARGYSYAMDYWGQGTTVTVSS VL: DIQMTQSPSSVSASVGDRVTITCSASQGISGDLNWYQQKPGKAPKLLIYHTSSLHSGVPSRFSGSGSGTDFTLTISSLQPEDFATYYCQYYSKDLLTFGGGTKLEIKR | 5.47 | 46200 | 57.7 | 0.00331 | 57400 | 16.2 | 0.00142 | 87400
3 | z4-XVT458 (antibody, human IgG1, kappa, V domains shown, hIgG1; numbering as for z1; also called GH + V067A + T071V) VH: QVQLVQSGAEVKKPGASVKVSCKASGYTFTNFYIHWVRQAPGQGLEWMGSIYPNYGDTAYNQKFKDRATMTVDTSTSTAYMELRSLRSDDTAVYYCARGYSYAMDYWGQGTTVTVSS VL: DIQMTQSPSSVSASVGDRVTITCSASQGISGDLNWYQQKPGKAPKLLIYHTSSLHSGVPSRFSGSGSGTDFTLTISSLQPEDFATYYCQYYSKDLLTFGGGTKLEIKR | 4.54 | 46700 | 51 | 0.00323 | 63300 | 13.3 | 0.00131 | 98800
4 | z6-XVT458 (antibody, human IgG1, kappa, V domains shown, hIgG1; numbering as for z1; also called GH + T071V + T073K) VH: QVQLVQSGAEVKKPGASVKVSCKASGYTFTNFYIHWVRQAPGQGLEWMGSIYPNYGDTAYNQKFKDRVTMTVDKSTSTAYMELRSLRSDDTAVYYCARGYSYAMDYWGQGTTVTVSS VL: DIQMTQSPSSVSASVGDRVTITCSASQGISGDLNWYQQKPGKAPKLLIYHTSSLHSGVPSRFSGSGSGTDFTLTISSLQPEDFATYYCQYYSKDLLTFGGGTKLEIKR | 3.93 | 46800 | 53.8 | 0.00314 | 58400 | 14.5 | 0.00133 | 92000

Continued by falling EC50 [1], values first:

Row | EC50 [1] [nM] | Top MFI [1] [MFI] | Kd [2] [nM] | koff [2] [s⁻¹] | kon [2] [M⁻¹ s⁻¹] | Kd [3] [nM] | koff [3] [s⁻¹] | kon [3] [M⁻¹ s⁻¹] | Binder
5 | 5.85 | 45200 | 57.3 | 0.00359 | 62700 | 15.9 | 0.00146 | 92300 | z1-XVT458 (antibody, human IgG1, kappa, V domains shown, hIgG1; also called GH + V067A) VH: QVQLVQSGAEVKKPGASVKVSCKASGYTFTNFYIHWVRQAPGQGLEWMGSIYPNYGDTAYNQKFKDRATMTTDTSTSTAYMELRSLRSDDTAVYYCARGYSYAMDYWGQGTTVTVSS VL: DIQMTQSPSSVSASVGDRVTITCSASQGISGDLNWYQQKPGKAPKLLIYHTSSLHSGVPSRFSGSGSGTDFTLTISSLQPEDFATYYCQYYSKDLLTFGGGTKLEIKR
6 | 5.74 | 45200 | 56.7 | 0.00358 | 63200 | 16.1 | 0.00147 | 91100 | z0-XVT458 (antibody, human IgG1, kappa, V domains shown, hIgG1; also called GH + uVL) VH: QVQLVQSGAEVKKPGASVKVSCKASGYTFTNFYIHWVRQAPGQGLEWMGSIYPNYGDTAYNQKFKDRVTMTTDTSTSTAYMELRSLRSDDTAVYYCARGYSYAMDYWGQGTTVTVSS VL: DIQMTQSPSSVSASVGDRVTITCSASQGISGDLNWYQQKPGKAPKLLIYHTSSLHSGVPSRFSGSGSGTDFTLTISSLQPEDFATYYCQYYSKDLLTFGGGTKLEIKR
7 | 3.88 | 46000 | 54.4 | 0.00321 | 58900 | 14.3 | 0.00136 | 95700 | z7-XVT458 (antibody, human IgG1, kappa, V domains shown, hIgG1; numbering as for z1; also called GH + V067A + T071V + T073K) VH: QVQLVQSGAEVKKPGASVKVSCKASGYTFTNFYIHWVRQAPGQGLEWMGSIYPNYGDTAYNQKFKDRATMTVDKSTSTAYMELRSLRSDDTAVYYCARGYSYAMDYWGQGTTVTVSS VL: DIQMTQSPSSVSASVGDRVTITCSASQGISGDLNWYQQKPGKAPKLLIYHTSSLHSGVPSRFSGSGSGTDFTLTISSLQPEDFATYYCQYYSKDLLTFGGGTKLEIKR
